# Patent publication US20150037339A1 (Regeneron, published 2015)
# T1: Activin AB (human, UniProt P08476 311-426; P09529 293-407)
# T1 construct: Heterodimer of one betaA and one betaB subunit; bought (R&D Systems #1006-AB-005 / #1066-AB)
# T1 chain 1: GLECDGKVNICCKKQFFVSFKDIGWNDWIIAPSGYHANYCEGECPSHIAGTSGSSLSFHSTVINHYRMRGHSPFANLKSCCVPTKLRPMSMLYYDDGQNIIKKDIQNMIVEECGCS
# T1 chain 2: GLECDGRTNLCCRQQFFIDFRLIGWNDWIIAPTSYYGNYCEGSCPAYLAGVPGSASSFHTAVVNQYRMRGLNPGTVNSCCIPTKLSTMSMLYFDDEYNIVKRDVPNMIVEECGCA
# T2: Activin AC (human, UniProt P55103 237-352)
# T2 sequence 1: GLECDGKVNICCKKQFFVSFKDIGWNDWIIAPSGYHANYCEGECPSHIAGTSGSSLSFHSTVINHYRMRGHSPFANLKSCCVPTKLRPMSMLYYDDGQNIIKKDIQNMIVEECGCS
# T2 sequence 2: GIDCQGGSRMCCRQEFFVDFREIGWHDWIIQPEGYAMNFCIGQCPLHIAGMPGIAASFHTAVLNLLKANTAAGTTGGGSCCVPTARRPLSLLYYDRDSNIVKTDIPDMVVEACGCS
# T3: Activin B (human, UniProt P09529 293-407)
# T3 chain: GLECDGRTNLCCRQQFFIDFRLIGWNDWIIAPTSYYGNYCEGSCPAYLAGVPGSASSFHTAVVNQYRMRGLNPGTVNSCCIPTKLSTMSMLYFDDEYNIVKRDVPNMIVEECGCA
# T4: Activin A (human, UniProt P08476 311-426)
# T4 sequence: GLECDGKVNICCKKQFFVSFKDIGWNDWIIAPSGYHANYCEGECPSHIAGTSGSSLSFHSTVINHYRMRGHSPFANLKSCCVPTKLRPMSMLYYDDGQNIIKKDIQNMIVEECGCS
# T5: hBMP9 (human, UniProt Q9UK05 320-429)
# T5 construct: Bought protein
# T5 sequence (looked up): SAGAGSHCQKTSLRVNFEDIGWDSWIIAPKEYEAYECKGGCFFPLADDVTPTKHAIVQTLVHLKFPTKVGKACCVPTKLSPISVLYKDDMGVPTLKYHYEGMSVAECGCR
# T6: hBMP10 (human, UniProt O95393 317-424)
# T6 construct: Bought protein
# T6 sequence (looked up): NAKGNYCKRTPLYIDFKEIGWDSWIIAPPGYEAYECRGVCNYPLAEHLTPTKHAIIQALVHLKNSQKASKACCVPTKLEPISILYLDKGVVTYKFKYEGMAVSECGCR
# T7: hBMP4 (human, UniProt P12644 293-408)
# T7 construct: Bought protein
# T7 sequence (looked up): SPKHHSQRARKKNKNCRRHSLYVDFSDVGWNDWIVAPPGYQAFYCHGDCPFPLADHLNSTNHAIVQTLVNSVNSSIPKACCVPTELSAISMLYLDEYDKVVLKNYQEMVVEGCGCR
# T8: hBMP6 (human, UniProt P22004 382-513, limits assumed)
# T8 construct: Bought protein
# T8 sequence (looked up): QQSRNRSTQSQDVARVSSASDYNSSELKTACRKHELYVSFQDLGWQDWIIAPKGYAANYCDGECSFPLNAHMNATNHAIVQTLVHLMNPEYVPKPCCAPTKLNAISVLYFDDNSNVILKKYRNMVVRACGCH
# Experiments:
# [1] = molecular target: T1, Activin AB; assay: SPR (Biacore), mAb captured on anti-Fc, Activin AB injected, 25 C
# Summary of the method: (§1)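 Association was monitored for 240 s and dissociation in buffer for 600 s. Rate constants came from kinetic fitting; KD was calculated as kd/ka and dissociative half-life as ln2/(60*kd), in minutes.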
# [2] = molecular target: T2, Activin AC; assay: cell-based or functional assay
# [3] = molecular target: T3, Activin B; assay: cell-based or functional assay
# [4] = molecular target: T4, Activin A; assay: cell-based or functional assay
# [5] = molecular target: T1, Activin AB; assay: cell-based or functional assay
# [6] = molecular target: T1, Activin AB; assay: SPR (Biacore), mAb captured on anti-Fc, Activin AB injected, 37 C
# Summary of the method: as §1
# [7] = molecular target: T2, Activin AC; assay: SPR (Biacore), mAb captured on anti-Fc, Activin AC injected, 37 C
# Summary of the method: as §1
# [8] = molecular target: T5, hBMP9; assay: SPR (Biacore 4000), captured on anti-human Fc, 200 nM ligand injected, 37 C
# Procedure: (§2) For the binding experiment, a Biacore 4000 instrument was used. […] All Biacore binding studies were performed in HBS-T running buffer (0.01 M HEPES pH 7.4, 0.5 M NaCl, 3 mM EDTA, 0.5 mg/ml bovine serum albumin, 0.05% v/v Surfactant P20). […] All binding measurements were performed at 37° C. […] Over the captured antibody surface was injected the TGF-beta family ligands through concentrations ranging from 3.1 nM to 200 nM.
# [9] = molecular target: T2, Activin AC; assay: as above
# Procedure: as §2
# [10] = molecular target: T9, GDF8 (human, UniProt O14793 267-375); assay: as above
# T9 construct: Bought (R&D Systems #788-G8); also called hGDF8; growth and differentiation factor-8
# Procedure: as §2
# [11] = molecular target: T6, hBMP10; assay: as above
# Procedure: as §2
# [12] = molecular target: T3, Activin B; assay: as above
# Procedure: as §2
# [13] = molecular target: T10, GDF11 (human, UniProt O95390 299-407); assay: as above
# T10 construct: Bought protein; also called hGDF11
# T10 sequence (O95390 299-407 limits assumed): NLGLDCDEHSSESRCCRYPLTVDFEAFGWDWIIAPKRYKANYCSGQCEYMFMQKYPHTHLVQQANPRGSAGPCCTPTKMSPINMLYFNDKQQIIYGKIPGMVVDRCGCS
# Procedure: as §2
# [14] = molecular target: T7, hBMP4; assay: as above
# Procedure: as §2
# [15] = molecular target: T4, Activin A; assay: as above
# Procedure: as §2
# [16] = molecular target: T8, hBMP6; assay: as above
# Procedure: as §2
# [17] = molecular target: T1, Activin AB; assay: as above
# Procedure: as §2
# [18] = molecular target: T11, hBMP2 (human, UniProt P12643 283-396); assay: as above
# T11 construct: Bought protein; also called BPM2
# T11 sequence (P12643 283-396 limits assumed): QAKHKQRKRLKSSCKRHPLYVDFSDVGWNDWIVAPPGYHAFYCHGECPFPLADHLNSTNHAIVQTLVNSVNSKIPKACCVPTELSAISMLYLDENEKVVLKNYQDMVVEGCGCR
# Procedure: as §2
# [19] = molecular target: T2, Activin AC; assay: SPR (Biacore), mAb captured on anti-Fc, Activin AC injected, 25 C
# Summary of the method: as §1
binder,measurement,setting,value
"H4H10429P (antibody, human IgG4, V domains shown) VH: QVQLVESGGGVVQPGRSLRLSCVASGFTVSSYGIHWVRQAPGKGLEWVSVIWYDGRNKDYADSVKGRFTISRDNSKNTVYLEMKGLRAEDTALYYCARDKTGDFDSWGQGTLVTVSS VL: DIQMTQSPSSLSASVGDRVTITCRASQNINSFLSWYQQKPGKAPKFLIYDASSIQSGAPSRFSGSGSGTDFTLTISSLQPEDFATYYCQQSYSSPFTFGQGTKLEIK",50 nM Ag Bound (RU),[1],40 RU
same,Kd,[1],0.0228 nM
same,koff,[1],0.000103 s⁻¹
same,kon,[1],4.53e+06 M⁻¹ s⁻¹
same,t1/2,[1],1.86 h
same,"IC50 [M], inhibition of 4 nM Activin AC in A204/CAGAx12-Luc Smad2/3-luciferase bioassay",[2],5.8e-10 M
same,"IC50 [M], inhibition of 50 pM Activin B in A204/CAGAx12-Luc Smad2/3-luciferase bioassay",[3],7.9e-08 M
same,"IC50 [M], inhibition of 100 pM Activin A in A204/CAGAx12-Luc Smad2/3-luciferase bioassay",[4],1.6e-10 M
same,"IC50 [M], inhibition of 30 pM Activin AB in A204/CAGAx12-Luc Smad2/3-luciferase bioassay",[5],2.9e-10 M
same,50 nM Ag Bound (RU),[6],50 RU
same,Kd,[6],0.0755 nM
same,koff,[6],0.000488 s⁻¹
same,kon,[6],6.47e+06 M⁻¹ s⁻¹
same,t1/2,[6],0.393 h
same,50 nM Ag Bound (RU),[7],35.7 RU
same,Kd,[7],0.462 nM
same,koff,[7],0.00062 s⁻¹
same,kon,[7],1.34e+06 M⁻¹ s⁻¹
same,t1/2,[7],0.31 h
same,binding response (resonance units) for 200 nM ligand,[8],33.4 RU
same,binding response (resonance units) for 200 nM ligand,[9],43.1 RU
same,binding response (resonance units) for 200 nM ligand,[10],-0.4 RU
same,binding response (resonance units) for 200 nM ligand,[11],32.4 RU
same,binding response (resonance units) for 200 nM ligand,[12],51.5 RU
same,binding response (resonance units) for 200 nM ligand,[13],1.6 RU
same,binding response (resonance units) for 200 nM ligand,[14],1.1 RU
same,binding response (resonance units) for 200 nM ligand,[15],56.8 RU
same,binding response (resonance units) for 200 nM ligand,[16],4.6 RU
same,binding response (resonance units) for 200 nM ligand,[17],76.5 RU
same,binding response (resonance units) for 200 nM ligand,[18],3.6 RU
same,50 nM Ag Bound (RU),[19],28 RU
same,Kd,[19],0.0997 nM
same,koff,[19],9.1e-05 s⁻¹
same,kon,[19],913000 M⁻¹ s⁻¹
same,t1/2,[19],2.12 h
